Numbered stars: 1 amine (or outer) side, 2 acyl side, 3 side chain; on linkers, the order of the positions; unused ones are H or OH. Bridge positions count the residues as written; N and C are the ends. Side chains are listed from the residue outwards. Ends that are not written are not given here. * marks the point of attachment. C20 diacid = O=C(O)CCCCCCCCCCCCCCCCCCC(=O)*; γGlu = O=C(O)[C@H](CCC(=O)[*:2])N[*:1]
B1: N^α1 N^α1-[(4S)-4-carboxy-4-[[(4S)-4-carboxy-4-(19-carboxynonadecanoylamino)butanoyl]amino]butanoyl]-[Glu14,Arg17,Pro21,Pro27]-h-amylin (peptide)
peptide: {C20 diacid-γGlu-γGlu}-KCNTATCATQRLAEFLRHSSPNFGAIPSSTNVGSNTY-NH2
modifications: disulfide 2-7
SMILES: CC[C@H](C)[C@H](NC(=O)[C@H](C)NC(=O)CNC(=O)[C@H](Cc1ccccc1)NC(=O)[C@H](CC(N)=O)NC(=O)[C@@H]1CCCN1C(=O)[C@H](CO)NC(=O)[C@H](CO)NC(=O)[C@H](Cc1c[nH]cn1)NC(=O)[C@H](CCCNC(=N)N)NC(=O)[C@H](CC(C)C)NC(=O)[C@H](Cc1ccccc1)NC(=O)[C@H](CCC(=O)O)NC(=O)[C@H](C)NC(=O)[C@H](CC(C)C)NC(=O)[C@H](CCCNC(=N)N)NC(=O)[C@H](CCC(N)=O)NC(=O)[C@@H](NC(=O)[C@H](C)NC(=O)[C@@H]1CSSC[C@H](NC(=O)[C@H](CCCCN)NC(=O)CC[C@H](NC(=O)CC[C@H](NC(=O)CCCCCCCCCCCCCCCCCCC(=O)O)C(=O)O)C(=O)O)C(=O)N[C@@H](CC(N)=O)C(=O)N[C@@H]([C@@H](C)O)C(=O)N[C@@H](C)C(=O)N[C@@H]([C@@H](C)O)C(=O)N1)[C@@H](C)O)C(=O)N1CCC[C@H]1C(=O)N[C@@H](CO)C(=O)N[C@@H](CO)C(=O)N[C@H](C(=O)N[C@@H](CC(N)=O)C(=O)N[C@H](C(=O)NCC(=O)N[C@@H](CO)C(=O)N[C@@H](CC(N)=O)C(=O)N[C@H](C(=O)N[C@@H](Cc1ccc(O)cc1)C(N)=O)[C@@H](C)O)C(C)C)[C@@H](C)O
notes: also called compound 15
B2: N^ε1-[(4S)-4-carboxy-4-[[(4S)-4-carboxy-4-(19-carboxynonadecanoylamino)butanoyl]amino]butanoyl]-[Glu14,Arg17,Pro21,Pro27,Pro34,Arg35]-h-amylin (peptide)
peptide: K([γGlu-γGlu-C20 diacid])CNTATCATQRLAEFLRHSSPNFGAIPSSTNVGPRTY-NH2
modifications: disulfide 2-7; N-terminus assumed
SMILES: CC[C@H](C)[C@H](NC(=O)[C@H](C)NC(=O)CNC(=O)[C@H](Cc1ccccc1)NC(=O)[C@H](CC(N)=O)NC(=O)[C@@H]1CCCN1C(=O)[C@H](CO)NC(=O)[C@H](CO)NC(=O)[C@H](Cc1c[nH]cn1)NC(=O)[C@H](CCCNC(=N)N)NC(=O)[C@H](CC(C)C)NC(=O)[C@H](Cc1ccccc1)NC(=O)[C@H](CCC(=O)O)NC(=O)[C@H](C)NC(=O)[C@H](CC(C)C)NC(=O)[C@H](CCCNC(=N)N)NC(=O)[C@H](CCC(N)=O)NC(=O)[C@@H](NC(=O)[C@H](C)NC(=O)[C@@H]1CSSC[C@H](NC(=O)[C@@H](N)CCCCNC(=O)CC[C@H](NC(=O)CC[C@H](NC(=O)CCCCCCCCCCCCCCCCCCC(=O)O)C(=O)O)C(=O)O)C(=O)N[C@@H](CC(N)=O)C(=O)N[C@@H]([C@@H](C)O)C(=O)N[C@@H](C)C(=O)N[C@@H]([C@@H](C)O)C(=O)N1)[C@@H](C)O)C(=O)N1CCC[C@H]1C(=O)N[C@@H](CO)C(=O)N[C@@H](CO)C(=O)N[C@H](C(=O)N[C@@H](CC(N)=O)C(=O)N[C@H](C(=O)NCC(=O)N1CCC[C@H]1C(=O)N[C@@H](CCCNC(=N)N)C(=O)N[C@H](C(=O)N[C@@H](Cc1ccc(O)cc1)C(N)=O)[C@@H](C)O)C(C)C)[C@@H](C)O
notes: also called compound 110
B3: N{Alpha-1}-[(4S)-4-carboxy-4-(19-carboxynonadecanoylamino)butanoyl]-[Glu14,Arg17,Pro21,Pro27,Lys34]-h-amylin (peptide)
peptide: {C20 diacid-γGlu}-KCNTATCATQRLAEFLRHSSPNFGAIPSSTNVGKNTY-NH2
modifications: disulfide 2-7
SMILES: CC[C@H](C)[C@H](NC(=O)[C@H](C)NC(=O)CNC(=O)[C@H](Cc1ccccc1)NC(=O)[C@H](CC(N)=O)NC(=O)[C@@H]1CCCN1C(=O)[C@H](CO)NC(=O)[C@H](CO)NC(=O)[C@H](Cc1c[nH]cn1)NC(=O)[C@H](CCCNC(=N)N)NC(=O)[C@H](CC(C)C)NC(=O)[C@H](Cc1ccccc1)NC(=O)[C@H](CCC(=O)O)NC(=O)[C@H](C)NC(=O)[C@H](CC(C)C)NC(=O)[C@H](CCCNC(=N)N)NC(=O)[C@H](CCC(N)=O)NC(=O)[C@@H](NC(=O)[C@H](C)NC(=O)[C@@H]1CSSC[C@H](NC(=O)[C@H](CCCCN)NC(=O)CC[C@H](NC(=O)CCCCCCCCCCCCCCCCCCC(=O)O)C(=O)O)C(=O)N[C@@H](CC(N)=O)C(=O)N[C@@H]([C@@H](C)O)C(=O)N[C@@H](C)C(=O)N[C@@H]([C@@H](C)O)C(=O)N1)[C@@H](C)O)C(=O)N1CCC[C@H]1C(=O)N[C@@H](CO)C(=O)N[C@@H](CO)C(=O)N[C@H](C(=O)N[C@@H](CC(N)=O)C(=O)N[C@H](C(=O)NCC(=O)N[C@@H](CCCCN)C(=O)N[C@@H](CC(N)=O)C(=O)N[C@H](C(=O)N[C@@H](Cc1ccc(O)cc1)C(N)=O)[C@@H](C)O)C(C)C)[C@@H](C)O
notes: also called compound 36
B4: N^ε1-[(4S)--4-carboxy-4-(19-carboxynonadecanoylamino)butanoyl]-[Glu14,Arg17,Pro21,Pro27,Pro37]-h-amylin (peptide)
peptide: K([γGlu-C20 diacid])CNTATCATQRLAEFLRHSSPNFGAIPSSTNVGSNTP-NH2
modifications: disulfide 2-7; N-terminus assumed
SMILES: CC[C@H](C)[C@H](NC(=O)[C@H](C)NC(=O)CNC(=O)[C@H](Cc1ccccc1)NC(=O)[C@H](CC(N)=O)NC(=O)[C@@H]1CCCN1C(=O)[C@H](CO)NC(=O)[C@H](CO)NC(=O)[C@H](Cc1c[nH]cn1)NC(=O)[C@H](CCCNC(=N)N)NC(=O)[C@H](CC(C)C)NC(=O)[C@H](Cc1ccccc1)NC(=O)[C@H](CCC(=O)O)NC(=O)[C@H](C)NC(=O)[C@H](CC(C)C)NC(=O)[C@H](CCCNC(=N)N)NC(=O)[C@H](CCC(N)=O)NC(=O)[C@@H](NC(=O)[C@H](C)NC(=O)[C@@H]1CSSC[C@H](NC(=O)[C@@H](N)CCCCNC(=O)CC[C@H](NC(=O)CCCCCCCCCCCCCCCCCCC(=O)O)C(=O)O)C(=O)N[C@@H](CC(N)=O)C(=O)N[C@@H]([C@@H](C)O)C(=O)N[C@@H](C)C(=O)N[C@@H]([C@@H](C)O)C(=O)N1)[C@@H](C)O)C(=O)N1CCC[C@H]1C(=O)N[C@@H](CO)C(=O)N[C@@H](CO)C(=O)N[C@H](C(=O)N[C@@H](CC(N)=O)C(=O)N[C@H](C(=O)NCC(=O)N[C@@H](CO)C(=O)N[C@@H](CC(N)=O)C(=O)N[C@H](C(=O)N1CCC[C@H]1C(N)=O)[C@@H](C)O)C(C)C)[C@@H](C)O
notes: also called compound 12
B5: N^ε1-[(4S)-4-carboxy-4-[[(4S)-4-carboxy-4-(19-carboxynonadecanoylamino)butanoyl]amino]butanoyl]-[Glu14,Arg17,Pro21,Pro27,Pro34,Glu35]-h-amylin (peptide)
peptide: K([γGlu-γGlu-C20 diacid])CNTATCATQRLAEFLRHSSPNFGAIPSSTNVGPETY-NH2
modifications: disulfide 2-7; N-terminus assumed
SMILES: CC[C@H](C)[C@H](NC(=O)[C@H](C)NC(=O)CNC(=O)[C@H](Cc1ccccc1)NC(=O)[C@H](CC(N)=O)NC(=O)[C@@H]1CCCN1C(=O)[C@H](CO)NC(=O)[C@H](CO)NC(=O)[C@H](Cc1c[nH]cn1)NC(=O)[C@H](CCCNC(=N)N)NC(=O)[C@H](CC(C)C)NC(=O)[C@H](Cc1ccccc1)NC(=O)[C@H](CCC(=O)O)NC(=O)[C@H](C)NC(=O)[C@H](CC(C)C)NC(=O)[C@H](CCCNC(=N)N)NC(=O)[C@H](CCC(N)=O)NC(=O)[C@@H](NC(=O)[C@H](C)NC(=O)[C@@H]1CSSC[C@H](NC(=O)[C@@H](N)CCCCNC(=O)CC[C@H](NC(=O)CC[C@H](NC(=O)CCCCCCCCCCCCCCCCCCC(=O)O)C(=O)O)C(=O)O)C(=O)N[C@@H](CC(N)=O)C(=O)N[C@@H]([C@@H](C)O)C(=O)N[C@@H](C)C(=O)N[C@@H]([C@@H](C)O)C(=O)N1)[C@@H](C)O)C(=O)N1CCC[C@H]1C(=O)N[C@@H](CO)C(=O)N[C@@H](CO)C(=O)N[C@H](C(=O)N[C@@H](CC(N)=O)C(=O)N[C@H](C(=O)NCC(=O)N1CCC[C@H]1C(=O)N[C@@H](CCC(=O)O)C(=O)N[C@H](C(=O)N[C@@H](Cc1ccc(O)cc1)C(N)=O)[C@@H](C)O)C(C)C)[C@@H](C)O

These binders were tested against T1, human calcitonin receptor (human, UniProt P30988 25-474) (assay: cell-based or functional assay).
T1 sequence (looked up): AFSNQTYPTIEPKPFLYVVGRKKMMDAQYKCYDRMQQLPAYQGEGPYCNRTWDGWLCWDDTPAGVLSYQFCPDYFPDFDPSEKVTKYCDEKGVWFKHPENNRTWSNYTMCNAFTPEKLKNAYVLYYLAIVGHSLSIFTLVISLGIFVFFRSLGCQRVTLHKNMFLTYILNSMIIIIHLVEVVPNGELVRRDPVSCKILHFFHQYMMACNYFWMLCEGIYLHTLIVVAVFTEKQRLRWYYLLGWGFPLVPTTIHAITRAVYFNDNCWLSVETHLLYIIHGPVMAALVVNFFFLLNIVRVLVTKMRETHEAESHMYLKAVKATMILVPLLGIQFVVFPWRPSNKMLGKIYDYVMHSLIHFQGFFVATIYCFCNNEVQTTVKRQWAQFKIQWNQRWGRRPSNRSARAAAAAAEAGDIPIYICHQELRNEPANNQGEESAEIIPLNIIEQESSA

Row | Binder | hCTR funct. EC50
1 | B1 | 3.43 nM
2 | B2 | 8.16 nM
3 | B3 | 1.28 nM
4 | B4 | 0.185 nM
5 | K([γGlu-γGlu-C20 diacid])CNTATCATQRLAEFLRHSSPNFGAILSSTPVGPETY-NH2 (disulfide 2-7 (inferred)) | 1.28 nM
6 | B5 | 2.36 nM
7 | K([γGlu-γGlu-C20 diacid])CNTATCATQRLAEFLRHSSPNFGAIPSSTNVGPHTY-NH2 (disulfide 2-7 (inferred)) | 2.83 nM
8 | K([γGlu-γGlu-C20 diacid])CNTATCATQRLAEFLRHSSPNFGAIPSSTNVGSNTP-NH2 (disulfide 2-7 (inferred), also called compound 13) | 0.47 nM

What follows are binders tested against T2, human amylin 3(a) receptor (human calcitonin receptor plus RAMP-3) (human, UniProt P30988 25-474; O60896 24-148, limits assumed) (assay: cell-based or functional assay).
T2 sequence (looked up) 1: T1 sequence (looked up)
T2 sequence (looked up) 2: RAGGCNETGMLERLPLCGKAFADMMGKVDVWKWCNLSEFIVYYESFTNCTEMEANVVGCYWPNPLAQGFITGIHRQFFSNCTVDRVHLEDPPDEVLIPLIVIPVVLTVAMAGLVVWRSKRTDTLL

Row | Binder | Ratio hCT/hAmylin funct. | hAmylin-R funct. EC50
9 | B1 | 8.9 | 0.386 nM
10 | B2 |  | 0.278 nM
11 | B3 | 6.8 | 0.189 nM
12 | B4 | 1.8 | 0.101 nM
13 | K([γGlu-γGlu-C20 diacid])CNTATCATQRLAEFLRHSSPNFGAILSSTPVGPETY-NH2 (disulfide 2-7 (inferred)) | 5.8 | 0.222 nM
14 | B5 |  | 0.225 nM
15 | K([γGlu-γGlu-C20 diacid])CNTATCATQRLAEFLRHSSPNFGAIPSSTNVGPHTY-NH2 (disulfide 2-7 (inferred)) |  | 0.172 nM
16 | K([γGlu-γGlu-C20 diacid])CNTATCATQRLAEFLRHSSPNFGAIPSSTNVGSNTP-NH2 (disulfide 2-7 (inferred), also called compound 13) | 2.2 | 0.213 nM

The binders below were run against T2, human amylin 3(a) receptor (human …) (assay: SPA competition binding, displacement of 125I-rat amylin from membranes of Amylin 3(a)/CRE-luc BHK cells (Assay V)).
In short: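 Membranes from BHK Amylin 3(a)/CRE-luc cells (35 ng/μL final) were mixed with SPA beads and test compounds in 50 mM Hepes pH 7.4 with 1 mM CaCl2, 5 mM MgCl₂, 0.1% OA and 0.02% Tween20. Incubation ran 120 min at 25° C with shaking; IC₅₀ came from one-site competition fitting.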

Row | Binder | IC50
17 | B1 | 0.597 nM
18 | B2 | 0.326 nM
19 | B3 | 0.403 nM
20 | B4 | 0.142 nM
21 | K([γGlu-γGlu-C20 diacid])CNTATCATQRLAEFLRHSSPNFGAILSSTPVGPETY-NH2 (disulfide 2-7 (inferred)) | 0.069 nM
22 | B5 | 0.121 nM
23 | K([γGlu-γGlu-C20 diacid])CNTATCATQRLAEFLRHSSPNFGAIPSSTNVGPHTY-NH2 (disulfide 2-7 (inferred)) | 0.377 nM
24 | K([γGlu-γGlu-C20 diacid])CNTATCATQRLAEFLRHSSPNFGAIPSSTNVGSNTP-NH2 (disulfide 2-7 (inferred), also called compound 13) | 0.264 nM
